We go through one molecule from patent CN112142841A (JIANGSU QUANXIN BIOMEDICAL CO LTD, dated 2020).

The target in assay [1] is T1, 人IL-17A (His-tag，购自Novoprotein) (human, UniProt Q16552 24-155).
T1 construct: Bought His-tagged protein, detected with an HRP-labelled anti-His antibody; also called human IL-17A; hIL-17A; not shown: His-tag
T1 sequence (looked up): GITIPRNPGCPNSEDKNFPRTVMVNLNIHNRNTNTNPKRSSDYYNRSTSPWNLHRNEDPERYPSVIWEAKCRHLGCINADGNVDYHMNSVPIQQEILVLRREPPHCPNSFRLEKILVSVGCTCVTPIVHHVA
Briefly: ELISA: antibody coated, serially diluted His-tagged human IL-17A, anti-His-HRP detection. A general note: In an ELISA, binding on a coated surface is turned into a signal by an enzyme label.

The target in assay [2] is T2, 人IL-17A蛋白 (Example 4, sandwich ELISA) (human, UniProt Q16552 24-155).
T2 construct: also called 重组人IL-17A蛋白标准品; recombinant human IL-17A protein standard
T2 sequence (looked up): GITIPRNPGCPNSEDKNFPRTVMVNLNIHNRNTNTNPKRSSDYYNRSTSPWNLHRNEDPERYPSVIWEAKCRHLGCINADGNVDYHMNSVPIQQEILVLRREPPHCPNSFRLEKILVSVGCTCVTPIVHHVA
Put plainly: sandwich ELISA: QX002N coated, human IL-17A 0-10 ng/ml, biotin-labelled second antibody for detection, SA-HRP.

B1: 抗人IL-17A单克隆抗体 (anti-human IL-17A monoclonal antibody) (antibody, V domains shown)
VH: QSLEESGGDLVQPEGSLALTCKASGFDLSSYYYMCWVRQAPGKGLEWIACIHTGNGYPYYANWAKGRFTISKTSSTTVTLQLTSLTVADTATYFCARPVGGYDYAMDLWGPGTLVTVSS
VL: AYDMTQTPASVSAAVGGTVTINCQASEDISSQLSWYQQRPGQPPKLLIYKASTLASGVPSRFRGSGSGTQFTLTISGVQCADAATYYCQQSASYFNVANTFGGGTEVVVKG
notes: also called 第二抗体; 检测抗体
With B1, the binding result in assay [1] and in assay [2] was “binds” throughout.
